Measurements as given in patent US20170320946A1.

Tests used:
[1] = target: huTREM-2 expressed as amino-terminal FLAG peptide fusion protein on transfected 293 cells (human) (UniProt Q9NZC2); assay: FACS of 293 cells transiently transfected with TREM-2-FLAG, stained with anti-FLAG mAb M2; isotype-matched control set to the lower quadrant
[2] = target: huTREM-1 expressed as amino-terminal FLAG peptide fusion protein on transfected COS-7 or 293 cells (human) (UniProt Q9NP99); assay: FACS of 293 cells transiently transfected with TREM-1-FLAG, stained with anti-FLAG mAb M2; isotype-matched control set to the lower quadrant

Substance: ANTI-FLAG mAb M2 (antibody)
- percentage of cells stained (upper right quadrant) [1]: 17.9%
- percentage of cells stained (upper right quadrant) [2]: 21.5%
